In patent US20210246218A1 (LYVGEN BIOPHARMA SUZHOU, published 2021):

Experiments:
Ly052 [1] = biological target: T1, Ly052; assay: ELISA, CD137 protein coated, clone 3712 titrated; flat curve (see non_binding)
T1 chain: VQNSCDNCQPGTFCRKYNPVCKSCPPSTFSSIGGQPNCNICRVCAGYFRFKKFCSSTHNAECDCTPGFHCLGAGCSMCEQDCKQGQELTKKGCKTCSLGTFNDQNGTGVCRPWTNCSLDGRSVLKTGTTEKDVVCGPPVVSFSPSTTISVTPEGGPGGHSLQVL
Method: For the data shown in FIGS. 16C-D, chimeric CD137 receptor protein samples were diluted in DPBS to 5 μg/mL and then coated onto an ELISA plate (Corning, Catalog number: 9018, high binding) at 50 μL (0.25 μg) per well, and incubated at 4° C. overnight. The plate was decanted and washed once; assay diluent was added at 200 μL/well. After a 1-hour incubation at room temperature, the plate was washed with PBST one time. […] The plate was incubated 1 hour at room temperature and then washed three times with PBST. Goat anti-human IgG-H+L HRP-conjugated at 1:100,000 dilution or goat anti-mouse IgG (H+L) secondary antibody, HRP, 10 at 1:50,000 dilution was added to the plate at 100 μL/well. The plate was incubated 1 hour at room temperature followed by washing with PBST four times. The TMB substrate solution was added 100 μL/well. The color was permitted to develop for 15 minutes and then 100 μL/well 2N H2SO4 was added to terminate the reaction. Absorbance at 450 nm and 620 nm was determined by a Tecan F200 Pro reader.

Ly048 = biological target: T2, Ly048; assay: ELISA, clone 3712-IgG1v coated, CD137 protein titrated (EC50 is a concentration of the CD137 protein); curve only begins to rise: about 0.63 at 100000 ng/mL, no plateau, the fitted EC50 lies beyond the range tested
T2 chain: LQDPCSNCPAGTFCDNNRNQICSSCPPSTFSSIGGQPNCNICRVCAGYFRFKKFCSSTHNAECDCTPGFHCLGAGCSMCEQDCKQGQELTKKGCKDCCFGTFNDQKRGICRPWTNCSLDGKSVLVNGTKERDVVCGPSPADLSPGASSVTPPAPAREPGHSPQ
Method: (§1) The plate was decanted and washed once; assay diluent was added 200 μL/well. After one-hour incubation at room temperature, the plate was washed with PBST one time. CD137 receptor human/mouse chimeras were diluted in assay diluent to 100 or 10 μg/mL, and then a 4-fold serial dilution in assay diluent for 11 points to final concentrations of 100000, 25000, 6250, 1562.5, 390.63, 97.66, 24.41, 6.10, 1.53, 0.38 and 0.095 ng/mL or 10000, 2500, 625, 156.25, 39.06, 9.77, 2.44, 0.61, 0.15, 0.038 and 0.0095 ng/mL. The diluted CD137 receptor was added to the assay plate, 50 μL/well, in duplicate. The plate was incubated one hour at room temperature and then washed three times with PBST. Goat anti-human IgG-H+L HRP conjugated at 1:100,000 20 dilution was added to the plate at 100 μL/well. The plate was then incubated one hour at room temperature followed by washing with PBST four times. The TMB substrate solution was added at 100 μL/well. The color was allowed to develop for 15 minutes, and was stopped with 100 μL/well 2N H2SO4. Absorbance at 450 nm and 620 nm was determined by a Tecan F200 Pro reader.

[2] = biological target: T3, recombinant cynomolgus monkey CD137 receptor protein (cynomolgus monkey, UniProt A9YYE7 24-186); assay: ELISA, recombinant cynomolgus CD137 protein coated, antibody titrated
T3 construct: Coated on ELISA plates; also called Cyno CD137
Method: The human or cynomolgus monkey CD137 receptor protein was diluted in DPBS to 1 μg/mL, and then coated onto an ELISA plate (Corning, Catalog number: 9018, high binding) with a volume of 100 μL (0.1 μg) or 50 μL (0.05 μg) per well, and incubated at 4° C. overnight. The plate was decanted and washed once; assay diluent was added 200 μL/well. After a one-hour incubation at room temperature, the plate was washed with PBST one time. […] The plate was incubated one hour at room temperature and then washed three times with PBST. Goat anti-human IgG-H+L HRP conjugated at 1:100,000 dilution was added to the plate at 100 μL/well. The plate was then incubated one hour at room temperature followed by washing with PBST four times. The TMB substrate solution was added at 100 μL/well. The color was allowed to develop for 15 minutes, and was stopped with 100 μL/well 2N H₂SO₄. Absorbance at 450 nm and 620 nm was determined by a Tecan F200 Pro reader.
Graphpad 7.0, “[Agonist] vs. response—Variable slope (four parameters)” was used to plot the binding data and calculate binding EC₅₀ values.

Ly052 [3] = biological target: T1, Ly052; assay: ELISA, clone 3712-IgG1v coated, CD137 protein titrated (EC50 is a concentration of the CD137 protein); curve rises only above about 1000 ng/mL to about 0.61 at 100000 ng/mL, no plateau seen
Method: as §1

[4] = biological target: T4, human FcγRIIA-His131 on CHO-K1 cells (human, UniProt P12318 34-317); assay: flow cytometry on CHO-huFcγRIIA-H131 cells, PE anti-human Fc F(ab')2
T4 construct: whole, on cells; Allotype His131; also called CHO-K1-huFcγRIIA-His131; CHO-huFcγRIIA-H131
T4 sequence (looked up): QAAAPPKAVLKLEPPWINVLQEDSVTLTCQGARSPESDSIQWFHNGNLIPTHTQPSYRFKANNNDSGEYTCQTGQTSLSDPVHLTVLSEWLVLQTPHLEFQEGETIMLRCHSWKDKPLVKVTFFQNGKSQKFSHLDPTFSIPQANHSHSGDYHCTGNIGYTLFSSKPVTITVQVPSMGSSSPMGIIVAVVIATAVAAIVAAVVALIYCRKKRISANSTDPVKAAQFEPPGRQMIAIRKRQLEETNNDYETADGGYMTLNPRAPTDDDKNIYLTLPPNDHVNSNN
Method: The plate was mixed and incubated in the dark for 2 hours at 4° C.

T3 sequence (A9YYE7 entry or part of it): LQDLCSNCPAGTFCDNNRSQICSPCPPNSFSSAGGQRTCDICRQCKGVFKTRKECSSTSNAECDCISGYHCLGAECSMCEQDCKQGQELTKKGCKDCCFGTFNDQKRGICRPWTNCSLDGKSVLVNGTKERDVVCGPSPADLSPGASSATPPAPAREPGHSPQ

EC50 (Ly052 [1]): 0.000749 µg/mL
EC50 (Ly048): 486 µg/mL
EC50 (read off the curve) [2]: ~0.05 µg/mL
EC50 (Ly052 [3]): 29.5 µg/mL
binding result [4]: no binding (tested: 100 µg/mL)
B1: Clone 3712-IgG1v (IgG1v/kappa) (antibody)
heavy: QVQLVQSGAEVKKPGASVKVSCKASGYTFAGFEMHWVRQAPGQGLEWMGAIDPKTGGTDYNQKFKDRVTMTRDTSISTAYMELSRLRSDDTAVYYCARDLGYFDVWGQGTLVTVSSASTKGPSVFPLAPSSKSTSGGTAALGCLVKDYFPEPVTVSWNSGALTSGVHTFPAVLQSSGLYSLSSVVTVPSSSLGTQTYICNVNHKPSNTKVDKKVEPKSCDKTHTCPPCPAPELLGPSVFLFPPKPKDTLMISRTPEVTCVVVDVEHEDPEVKFNWYVDGVEVHNAKTKPREEQYNSTYRVVSVLTVLHQDWLNGKEYKCKVSNKALPAPIEKTISKAKGQPREPQVYTLPPSREEMTKNQVSLTCLVKGFYPSDIAVEWESNGQPENNYKTTPPVLDSDGSFFLYSKLTVDKSRWQQGNVFSCSVMHEALHNHYTQKSLSLSPGK
light: DIQMTQSPSSLSASVGDRVTITCRASQDIRSNLNWYQQKPGGAVKLLIYYTSRLHSGVPSRFSGSGSGTDYTLTISSLQPEDFATYFCQQSEKLPRTFGGGTKVEIRRTVAAPSVFIFPPSDEQLKSGTASVVCLLNNFYPREAKVQWKVDNALQSGNSQESVTEQDSKDSTYSLSSTLTLSKADYEKHKVYACEVTHQGLSSPVTKSFNRGEC
notes: copies: 2 + 2
